# In US20170052184A1:
# Like-named read-outs stand apart in the source and are kept apart here.
# Columns and labels:
# [1] = biological target: 92-133 biotin labeled HCV core peptide (hepatitis C virus) (UniProt P26664); assay: EIA; Ab 3.906 ng/mL captured on anti-mouse Fc; bt-peptide 500 ng/mL
# [2] = biological target: Mut6T110S biotin labeled HCV core peptide (hepatitis C virus); assay: as above
# [3] = biological target: 92-133 biotin labeled HCV core peptide (hepatitis C virus) (UniProt P26664); assay: EIA; Ab 2000 ng/mL captured on anti-mouse Fc; bt-peptide 500 ng/mL
# [4] = biological target: Mut6T110S biotin labeled HCV core peptide (hepatitis C virus); assay: as above
# [5] = biological target: C113T109N biotin labeled HCV core peptide (hepatitis C virus); assay: as above
# [6] = biological target: Mut1T110N biotin labeled HCV core peptide (hepatitis C virus); assay: as above
# [7] = biological target: 92-133 biotin labeled HCV core peptide (hepatitis C virus) (UniProt P26664); assay: EIA; Ab 500 ng/mL captured on anti-mouse Fc; bt-peptide 500 ng/mL
# [8] = biological target: Mut6T110S biotin labeled HCV core peptide (hepatitis C virus); assay: as above
# [9] = biological target: C113T109N biotin labeled HCV core peptide (hepatitis C virus); assay: as above
# [10] = biological target: Mut1T110N biotin labeled HCV core peptide (hepatitis C virus); assay: as above
# [11] = biological target: 92-133 biotin labeled HCV core peptide (hepatitis C virus) (UniProt P26664); assay: EIA; Ab 125 ng/mL captured on anti-mouse Fc; bt-peptide 500 ng/mL
# [12] = biological target: Mut6T110S biotin labeled HCV core peptide (hepatitis C virus); assay: as above
# [13] = biological target: C113T109N biotin labeled HCV core peptide (hepatitis C virus); assay: as above
# [14] = biological target: Mut1T110N biotin labeled HCV core peptide (hepatitis C virus); assay: as above
# [15] = biological target: 92-133 biotin labeled HCV core peptide (hepatitis C virus) (UniProt P26664); assay: EIA; Ab 15.625 ng/mL captured on anti-mouse Fc; bt-peptide 500 ng/mL
# [16] = biological target: Mut6T110S biotin labeled HCV core peptide (hepatitis C virus); assay: as above
# [17] = biological target: C113T109N biotin labeled HCV core peptide (hepatitis C virus); assay: as above
# [18] = biological target: Mut1T110N biotin labeled HCV core peptide (hepatitis C virus); assay: as above
# [19] = biological target: 92-133 biotin labeled HCV core peptide (hepatitis C virus) (UniProt P26664); assay: EIA; Ab 1000 ng/mL captured on anti-mouse Fc; bt-peptide 500 ng/mL
# [20] = biological target: Mut6T110S biotin labeled HCV core peptide (hepatitis C virus); assay: as above
# [21] = biological target: C113T109N biotin labeled HCV core peptide (hepatitis C virus); assay: as above
# [22] = biological target: Mut1T110N biotin labeled HCV core peptide (hepatitis C virus); assay: as above
# [23] = biological target: 92-133 biotin labeled HCV core peptide (hepatitis C virus) (UniProt P26664); assay: EIA; Ab 31.25 ng/mL captured on anti-mouse Fc; bt-peptide 500 ng/mL
# [24] = biological target: Mut6T110S biotin labeled HCV core peptide (hepatitis C virus); assay: as above
# [25] = biological target: C113T109N biotin labeled HCV core peptide (hepatitis C virus); assay: as above
# [26] = biological target: Mut1T110N biotin labeled HCV core peptide (hepatitis C virus); assay: as above
# [27] = biological target: 92-133 biotin labeled HCV core peptide (hepatitis C virus) (UniProt P26664)
# [28] = biological target: Mut6T110S biotin labeled HCV core peptide (hepatitis C virus)
# [29] = biological target: C113T109N biotin labeled HCV core peptide (hepatitis C virus)
# [30] = biological target: Mut1T110N biotin labeled HCV core peptide (hepatitis C virus)
# [31] = biological target: 92-133 biotin labeled HCV core peptide (hepatitis C virus) (UniProt P26664); assay: EIA; Ab 62.5 ng/mL captured on anti-mouse Fc; bt-peptide 500 ng/mL
# [32] = biological target: Mut6T110S biotin labeled HCV core peptide (hepatitis C virus); assay: as above
# [33] = biological target: C113T109N biotin labeled HCV core peptide (hepatitis C virus); assay: as above
# [34] = biological target: Mut1T110N biotin labeled HCV core peptide (hepatitis C virus); assay: as above
substance,measurement,setting,value
HCV C11-3 monoclonal antibody,signal at 492 nm,[1],0.183 OD 492 nm
same,signal at 492 nm,[2],0.227 OD 492 nm
same,signal at 492 nm,[3],1.45 OD 492 nm
same,signal at 492 nm,[4],1.73 OD 492 nm
same,signal at 492 nm,[5],0.0707 OD 492 nm
same,signal at 492 nm,[6],0.0915 OD 492 nm
same,signal at 492 nm,[7],1.95 OD 492 nm
same,signal at 492 nm,[8],2.24 OD 492 nm
same,signal at 492 nm,[9],0.0882 OD 492 nm
same,signal at 492 nm,[10],0.0765 OD 492 nm
same,signal at 492 nm,[11],1.83 OD 492 nm
same,signal at 492 nm,[12],2.02 OD 492 nm
same,signal at 492 nm,[13],0.147 OD 492 nm
same,signal at 492 nm,[14],0.127 OD 492 nm
same,signal at 492 nm,[15],1.01 OD 492 nm
same,signal at 492 nm,[16],0.807 OD 492 nm
same,signal at 492 nm,[17],0.116 OD 492 nm
same,signal at 492 nm,[18],0.11 OD 492 nm
same,signal at 492 nm,[19],1.87 OD 492 nm
same,signal at 492 nm,[20],2.15 OD 492 nm
same,signal at 492 nm,[21],0.0806 OD 492 nm
same,signal at 492 nm,[22],0.0721 OD 492 nm
same,signal at 492 nm,[23],1.55 OD 492 nm
same,signal at 492 nm,[24],1.54 OD 492 nm
same,signal at 492 nm,[25],0.16 OD 492 nm
same,signal at 492 nm,[26],0.107 OD 492 nm
same,signal at 492 nm,[27],1.01 OD 492 nm
same,signal at 492 nm,[28],0.807 OD 492 nm
same,signal at 492 nm,[29],0.116 OD 492 nm
same,signal at 492 nm,[30],0.11 OD 492 nm
same,signal at 492 nm,[31],1.92 OD 492 nm
same,signal at 492 nm,[32],2.11 OD 492 nm
same,signal at 492 nm,[33],0.202 OD 492 nm
same,signal at 492 nm,[34],0.155 OD 492 nm
